Experiment in all cases: cell-based or functional assay
Assay [1] concerns the target HIV-1 Env of strain AC10.0.29 (HIV-1).
Assay [2] has as its target HIV-1 Env of strain CAP210.2.00.E8 (HIV-1).
The target of assay [3] is HIV-1 Env of strain CAP45.2.00.G3 (HIV-1).
Assay [4] has as its target HIV-1 Env of strain SC422661.8 (HIV-1).
The target in assay [5] is HIV-1 Env of strain TRO.11 (HIV-1).
Assay [6] has as its target HIV-1 Env of strain 3718.v3.c11 (HIV-1).
Assay [7] concerns the target HIV-1 Env of strain C3347.c11 (HIV-1).
The target of assay [8] is HIV-1 Env of strain CNE30 (HIV-1).
Assay [9] deals with HIV-1 Env of strain Ce1176_A3 (HIV-1).
Assay [10] has as its target HIV-1 Env of strain Du172.17 (HIV-1).
The target in assay [11] is HIV-1 Env of strain Q842.d12 (HIV-1).
The target of assay [12] is HIV-1 Env of strain ZM233M.PB6 (HIV-1).
Assay [13] deals with HIV-1 strain 231966.c02 envelope (gp120) (HIV-1).
Assay [14] deals with HIV-1 strain 3016.v5.c45 envelope (gp120) (HIV-1).
Assay [15] addresses HIV-1 strain Ce1176_A3 envelope (gp120) (HIV-1).
Assay [16] deals with HIV-1 strain Du156.12 envelope (gp120) (HIV-1).
For assay [17], the target named is HIV-1 strain Du172.17 envelope (gp120) (HIV-1).
Assay [18] concerns the target HIV-1 strain Q769.d22 envelope (gp120) (HIV-1).
In assay [19] the target is HIV-1 strain T255-34 envelope (gp120) (HIV-1).
Assay [20] addresses HIV-1 strain WITO4160.33 envelope (gp120) (HIV-1).
For assay [21], the target named is Env of HIV-1 strain 0815.v3.c3 (HIV-1).
Assay [22] has as its target Env of HIV-1 strain 1056_10_TA11_1826 (HIV-1).
Assay [23] deals with Env of HIV-1 strain 6545.v4.c1 (HIV-1).
Assay [24] has as its target Env of HIV-1 strain 6811.v7.c18 (HIV-1).
Assay [25] addresses Env of HIV-1 strain 7030102001E5(Rev-) (HIV-1).
In assay [26] the target is Env of HIV-1 strain 9004SS_A3_4 (HIV-1).
For assay [27], the target named is Env of HIV-1 strain A07412M1.vrc12 (HIV-1).
The target of assay [28] is Env of HIV-1 strain BJOX010000.06.2 (HIV-1).
The target in assay [29] is Env of HIV-1 strain BJOX025000.01.1 (HIV-1).
The target in assay [30] is Env of HIV-1 strain C2101.c01 (HIV-1).
The target of assay [31] is Env of HIV-1 strain C4118.c09 (HIV-1).
In assay [32] the target is Env of HIV-1 strain CAAN5342.A2 (HIV-1).
Assay [33] has as its target Env of HIV-1 strain CAP210.2.00.E8 (HIV-1).
The target in assay [34] is Env of HIV-1 strain CAP45.2.00.G3 (HIV-1).
Assay [35] addresses Env of HIV-1 strain CNE21 (HIV-1).
For assay [36], the target named is Env of HIV-1 strain Du422.1 (HIV-1).
The target in assay [37] is Env of HIV-1 strain PVO.4 (HIV-1).
Assay [38] has as its target Env of HIV-1 strain Q259.d2.17 (HIV-1).
Assay [39] has as its target Env of HIV-1 strain Q769.d22 (HIV-1).
The target of assay [40] is Env of HIV-1 strain R1166.c01 (HIV-1).
For assay [41], the target named is Env of HIV-1 strain SC05_8C11_2344 (HIV-1).
The target of assay [42] is Env of HIV-1 strain T251-18 (HIV-1).
The target of assay [43] is Env of HIV-1 strain X1193_c1 (HIV-1).
Assay [44] deals with Env of HIV-1 strain X1254_c3 (HIV-1).
Assay [45] has as its target Env of HIV-1 strain X2131_C1_B5 (HIV-1).
The target in assay [46] is Env of HIV-1 strain ZM135M.PL10a (HIV-1).
For assay [47], the target named is Env of HIV-1 strain ZM197M.PB7 (HIV-1).
For assay [48], the target named is Env of HIV-1 strain ZM214M.PL15 (HIV-1).
The target in assay [49] is HIV-1 Env of strain Ce1086_B2 (HIV-1).
The target of assay [50] is HIV-1 Env of strain HIV-001428-2.42 (HIV-1).

B1: NIH45-46^G54Y IgG (antibody, name in Kabat numbering, V domains shown)
VH: QVRLSQSGGQMKKPGESMRLSCRASGYEFLNCPINWIRLAPGRRPEWMGWLKPRYGAVNYARKFQGRVTMTRDVYSDTAFLELRSLTSDDTAVYFCTRGKYCTARDYYNWDFEHWGRGAPVTVSS
VL: EIVLTQSPATLSLSPGETAIISCRTSQSGSLAWYQQRPGQAPRLVIYSGSTRAAGIPDRFSGSRWGADYNLSISNLESGDFGVYYCQQYEFFGQGTKVQVDI
Consider B1, for which the neutralization IC50 was 0.4 µg/mL in [1]; more than 50 µg/mL in [2]; 45 µg/mL in assay [3]; 0.06 µg/mL in assay [4]; 0.1 µg/mL in assay [5]; 0.3 µg/mL in assay [6]. In addition, the neutralization IC50 in assay [7] is 0.011 µg/mL; in assay [8], 0.099 µg/mL; in assay [9], 0.21 µg/mL; in [10], more than 50 µg/mL; in assay [11], 0.015 µg/mL; in assay [12], 0.16 µg/mL. For the same molecule, the neutralization IC80 was 0.23 µg/mL in [13]; more than 50 µg/mL in assay [14]; 0.58 µg/mL in assay [15]; 0.026 µg/mL in assay [16]; more than 50 µg/mL in assay [17]; 0.024 µg/mL in assay [18]. For the same molecule, the neutralization IC80 in [19] turned out to be 0.174 µg/mL; in assay [20], 0.09 µg/mL.

B2: NIH45-46^G54W(HC) S28Y(LC) (antibody, V domains shown)
VH: QVRLSQSGGQMKKPGESMRLSCRASGYEFLNCPINWIRLAPGRRPEWMGWLKPRWGAVNYARKFQGRVTMTRDVYSDTAFLELRSLTSDDTAVYFCTRGKYCTARDYYNWDFEHWGRGAPVTVSS
VL: EIVLTQSPATLSLSPGETAIISCRTSQYGSLAWYQQRPGQAPRLVIYSGSTRAAGIPDRFSGSRWGADYNLSISNLESGDFGVYYCQQYEFFGQGTKVQVDI
As for B2, the IC80 was 0.004 µg/mL in assay [21]; 0.289 µg/mL in assay [22]; more than 50 µg/mL in assay [23]; 0.11 µg/mL in [24]; 0.229 µg/mL in [25]; 0.138 µg/mL in [26]. Besides, the IC80 came to 0.064 µg/mL in [27]; 5.04 µg/mL in assay [28]; 0.211 µg/mL in assay [29]; 0.169 µg/mL in assay [30]; 0.058 µg/mL in assay [31]; 0.299 µg/mL in [32]. Further, the 80% effect concentration (IC80) was 9.05 µg/mL in assay [33]; 0.089 µg/mL in assay [34]; 0.047 µg/mL in assay [35]; more than 50 µg/mL in [36]; 0.099 µg/mL in [37]; 0.011 µg/mL in [38]. For the same molecule, the IC80 in assay [39] was found to be 0.017 µg/mL; in [40], 1.01 µg/mL; in assay [41] it was 0.219 µg/mL; in assay [42], 1.43 µg/mL; in assay [43], 0.054 µg/mL; in [44] it was 0.03 µg/mL. The IC80 in assay [45] worked out at 0.145 µg/mL; in assay [46], 0.163 µg/mL; in assay [47], 0.274 µg/mL; in assay [48], 0.258 µg/mL.

B3: NIH45-46^G54F IgG (antibody, name in Kabat numbering, V domains shown)
VH: QVRLSQSGGQMKKPGESMRLSCRASGYEFLNCPINWIRLAPGRRPEWMGWLKPRFGAVNYARKFQGRVTMTRDVYSDTAFLELRSLTSDDTAVYFCTRGKYCTARDYYNWDFEHWGRGAPVTVSS
VL: EIVLTQSPATLSLSPGETAIISCRTSQSGSLAWYQQRPGQAPRLVIYSGSTRAAGIPDRFSGSRWGADYNLSISNLESGDFGVYYCQQYEFFGQGTKVQVDI
B3: the neutralization IC50 was 0.3 µg/mL in assay [1]; more than 50 µg/mL in assay [2]; more than 50 µg/mL in [3]; 0.02 µg/mL in assay [4]; 0.08 µg/mL in [5]; 0.32 µg/mL in [6]. Besides, the neutralization IC50 was 0.015 µg/mL in assay [7]; 0.1 µg/mL in assay [8]; 0.24 µg/mL in assay [9]; more than 50 µg/mL in [10]; 0.011 µg/mL in assay [11]; 0.22 µg/mL in assay [12]. Moreover, the neutralization IC80 in [13] is 0.24 µg/mL; in assay [14] it was 37 µg/mL; in assay [15] it was 0.83 µg/mL; in [16], 0.019 µg/mL; in [17], more than 50 µg/mL; in assay [18], 0.023 µg/mL. Also, the neutralization IC80 came to 0.198 µg/mL in assay [19] and 0.14 µg/mL in assay [20].

B4: NIH45-46^G54W IgG (antibody, name in Kabat numbering, V domains shown)
VH: QVRLSQSGGQMKKPGESMRLSCRASGYEFLNCPINWIRLAPGRRPEWMGWLKPRWGAVNYARKFQGRVTMTRDVYSDTAFLELRSLTSDDTAVYFCTRGKYCTARDYYNWDFEHWGRGAPVTVSS
VL: EIVLTQSPATLSLSPGETAIISCRTSQSGSLAWYQQRPGQAPRLVIYSGSTRAAGIPDRFSGSRWGADYNLSISNLESGDFGVYYCQQYEFFGQGTKVQVDI
Turning to B4, the neutralization IC50 was determined as 0.2 µg/mL in assay [1]; 41 µg/mL in assay [2]; 6.6 µg/mL in assay [3]; 0.03 µg/mL in [4]; 0.09 µg/mL in [5]; 0.01 µg/mL in assay [6]. The neutralization IC50 is less than 0.001 µg/mL in [7]; 0.052 µg/mL in assay [8]; 0.16 µg/mL in assay [9]; 3.65 µg/mL in assay [10]; 0.005 µg/mL in assay [11]; 0.02 µg/mL in [12]. This molecule also displayed an improvement of neutralization potency over NIH45-46 in assay [6] of 2000 fold. Besides, the neutralization IC80 was 0.11 µg/mL in assay [13]; 15.4 µg/mL in assay [14]; 0.45 µg/mL in [15]; 0.005 µg/mL in [16]; 42.9 µg/mL in assay [17]; 0.009 µg/mL in assay [18]. Also, the figures for the neutralization IC80 in [19] and in [20] were 0.099 µg/mL and 0.04 µg/mL, respectively.

B5: NIH45-46^G54W(HC), S28Y(LC) (antibody, V domains shown)
VH: QVRLSQSGGQMKKPGESMRLSCRASGYEFLNCPINWIRLAPGRRPEWMGWLKPRWGAVNYARKFQGRVTMTRDVYSDTAFLELRSLTSDDTAVYFCTRGKYCTARDYYNWDFEHWGRGAPVTVSS
VL: EIVLTQSPATLSLSPGETAIISCRTSQYGSLAWYQQRPGQAPRLVIYSGSTRAAGIPDRFSGSRWGADYNLSISNLESGDFGVYYCQQYEFFGQGTKVQVDI
For B5, the IC50, pseudovirus neutralization in assay [7] was determined as 0.007 µg/mL; in [8] it was 0.082 µg/mL; in assay [49], 0.004 µg/mL; in [9], 0.172 µg/mL; in [10], 0.015 µg/mL; in [50] it was 0.001 µg/mL. Further, the figures for the IC50, pseudovirus neutralization in assay [11] and in assay [12] were 0.001 µg/mL and 0.011 µg/mL, respectively.

Broadly, the IC80 is the point of the concentration-response curve where the effect stands at 80%. Low readings indicate greater potency, high ones weaker potency.

For the origin of these results see patent US20130209454A1.
